Values belong to the binder of their own block, whether it stands above or below them.
Molecular target: free prostate specific antigen (PSA) (human, UniProt P07288 25-261)
Assay: cell-based or functional assay

Time to 50% Substrate Cleavage by York PSA (Min); cell gives percent cleaved at 1 hour: 34 % cleaved at 1 hour
B1: 4-O-(Ac-4-trans-L-HypSSChgQSS-(d)-Pro)-(dAc)-VIN (peptide)
peptide: XSSXQSSP
modifications: N-terminal acetyl; 4-trans-L-hydroxyproline at 1; Chg at 4; D-Pro at 8, esterified to the 4-O of des-acetylvinblastine

Time to 50% Substrate Cleavage by York PSA (Min); cell gives percent cleaved at 1 hour: 4 % cleaved at 1 hour
B2: 4-O-[(2-OH)Ac-SChgQSS-Sar]-dAc-VIN (peptide)
peptide: XXQSSX
modifications: N-terminal hydroxyacetyl ((2-OH)Ac); Chg at 2; sarcosine at 6, esterified to the 4-O of des-acetylvinblastine

Time to 50% Substrate Cleavage by York PSA (Min); cell gives percent cleaved at 1 hour: 12 % cleaved at 1 hour
B3: 4-O-(Ac-4-trans-L-HypSSChgQ-S(dS)-4-trans-L-Hyp)-dAc-VIN (peptide)
peptide: XSSXQSXX
modifications: N-terminal acetyl; 4-trans-L-hydroxyproline at 1 and 8; Chg at 4; D-Ser at 7; C-terminus esterified to the 4-O of des-acetylvinblastine
